Our source for the activity (% MYC protein reduction) values is patent US20260256782.

This series deals with ZF3-KRAB (MR-32054 bicistronic component) (synthetic construct). The series can be described thus: cell_activity. The settings on record: 48 h, 0.5 ug/ml, combined effect with ZF9-MQ1, binding not measured directly.
Sequence of ZF3-KRAB (MR-32054 bicistronic component) (synthetic construct) (chain, as listed by the source): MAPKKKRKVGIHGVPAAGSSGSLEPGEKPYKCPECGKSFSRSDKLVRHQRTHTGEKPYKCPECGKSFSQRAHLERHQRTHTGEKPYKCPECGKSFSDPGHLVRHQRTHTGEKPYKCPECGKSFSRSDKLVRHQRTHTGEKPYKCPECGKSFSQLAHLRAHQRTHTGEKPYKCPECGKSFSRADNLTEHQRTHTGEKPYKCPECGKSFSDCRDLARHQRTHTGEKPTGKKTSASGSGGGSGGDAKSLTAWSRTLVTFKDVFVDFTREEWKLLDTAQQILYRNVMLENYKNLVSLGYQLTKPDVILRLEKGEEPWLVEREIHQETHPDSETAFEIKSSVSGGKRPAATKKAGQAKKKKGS

Regarding “MYC upstream anchor (CTCF) ZF3 target site”, the activity (% MYC protein reduction) was 30 (H1975 cells) and 47 (PC9 cells).
